We go through five molecules from patent publication US20260284244 (published 2026).

In the test the target is T1, La/SSB N-terminal domain (La-NTD) (human, UniProt P05455).
T1 chain: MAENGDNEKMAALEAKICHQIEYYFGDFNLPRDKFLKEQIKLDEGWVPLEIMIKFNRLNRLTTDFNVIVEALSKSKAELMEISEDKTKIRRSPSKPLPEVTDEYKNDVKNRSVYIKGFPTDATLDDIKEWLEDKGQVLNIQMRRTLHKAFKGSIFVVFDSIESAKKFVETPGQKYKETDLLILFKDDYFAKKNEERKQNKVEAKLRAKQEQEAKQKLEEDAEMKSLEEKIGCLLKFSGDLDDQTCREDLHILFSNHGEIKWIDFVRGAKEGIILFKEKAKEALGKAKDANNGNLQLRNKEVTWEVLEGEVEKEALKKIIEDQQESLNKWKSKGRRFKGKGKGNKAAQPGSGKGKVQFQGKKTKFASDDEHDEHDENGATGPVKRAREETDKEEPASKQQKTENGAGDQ
In words: SPR.

B1: chAPOMAB_VH0/VK0_K322A (antibody, V domains shown)
VH: EVQLQQPGAELVKPGASVKLSCKASGYAFTHYYIYWIKQRPGQGLEWIGGVNPSNGGTHFNEKFKSKATLTVDKSSSTAYMQLSSLTSEDSAVYYCTRSEYDYGLGFAYWGQGTLLTVSS
VL: EIVMSQSPSSLAVSAGEKVTMSCKSSQSLLNSRTPKNYLAWYQQKPGQSPKLLIYWASTRKSGVPDRFTGSGSGTDFTLTISSVQAEDLAVYYCKQSYNLLTFGAGTKLEL
In turn, B1 registered a Kd of 18.2 nM.

B2: VH3/VK6_K322A (antibody, V domains shown)
VH: EVQLVQSGAEVKKPGASVKVSCKASGYAFTHYYIYWIRQAPGQGLEWMGGVNPSSGGTHYAEKFQGRVTLTVDTSSSTAYMELSSLRSEDTAVYYCTRSEYDYGLGFAYWGQGTLVTVSS
VL: DIVMTQSPLSLPVTPGEPASISCRSSQSLLSSRTPKNYLAWYQQKPGQSPQLLIYWASTRKSGVPDRFSGSGSGTDFTLKISRVEAEDVGVYYCKQSYNLLTFGQGTKLEIK
B2 came in with a Kd of 13.6 nM.

B3: VH6/VK8_K322A_RadMab (antibody, V domains shown)
VH: EVQLVQSGAEVKKPGASVKVSCKASGYAFTHYYIYWIKQAPGQGLEWIGGVNPSNGGTHFNEKFKSRVTITVDKSASTAYMELSSLRSEDTAVYYCTRSEYDYGLGFAYWGQGTLVTVSS
VL: EIVMTQSPDSLAVSLGERATINCKSSQSLLNSRTPKNYLAWYQQKPGQPPKLLIYWASTRESGVPDRFTGSGSGTDFTLTISSLQAEDVAVYYCKQSYNLLTFGQGTKLEIKR
Turning to B3, the affinity, expressed as Kd, was 8.72 nM.

B4: VH6/VK8_K322A (antibody, V domains shown)
VH: EVQLVQSGAEVKKPGASVKVSCKASGYAFTHYYIYWIKQAPGQGLEWIGGVNPSNGGTHFNEKFKSRVTITVDKSASTAYMELSSLRSEDTAVYYCTRSEYDYGLGFAYWGQGTLVTVSS
VL: EIVMTQSPDSLAVSLGERATINCKSSQSLLNSRTPKNYLAWYQQKPGQPPKLLIYWASTRESGVPDRFTGSGSGTDFTLTISSLQAEDVAVYYCKQSYNLLTFGQGTKLEIK
As to B4, binding was characterised by a dissociation constant (Kd) of 14.5 nM.

B5: VH3/VK6_K322A_RadMab (antibody, V domains shown)
VH: EVQLVQSGAEVKKPGASVKVSCKASGYAFTHYYIYWIRQAPGQGLEWMGGVNPSSGGTHYAEKFQGRVTLTVDTSSSTAYMELSSLRSEDTAVYYCTRSEYDYGLGFAYWGQGTLVTVSS
VL: DIVMTQSPLSLPVTPGEPASISCRSSQSLLSSRTPKNYLAWYQQKPGQSPQLLIYWASTRKSGVPDRFSGSGSGTDFTLKISRVEAEDVGVYYCKQSYNLLTFGQGTKLEIKR
In turn, B5 came in with a Kd of 8.27 nM.
